Test results reported in article PMC12596378, “Nonstructural Protein 1 Mediates HMGB1 Release by Targeting Histone H1.0 After Respiratory Syncytial Virus Infection In Vivo and In Vitro” (Inflammation, 2025).

Target: T1, His-H1.0 fusion protein (histone H1.0) (UniProt P07305 2-194)
T1 construct: histone H1.0; Used in the pull-down and as analyte in SPR; source: E. coli BL21, purified (Ni-NTA Sepharose)
Test: SPR; BIAcore T200; His-NS1 amine-coupled on a CM5 chip (600 RU); H1.0 at 0-500 nM in PBS flowed over, 30 uL/min, dissociation 360 s
Details: both partners purified

T1 sequence (P07305 2-194): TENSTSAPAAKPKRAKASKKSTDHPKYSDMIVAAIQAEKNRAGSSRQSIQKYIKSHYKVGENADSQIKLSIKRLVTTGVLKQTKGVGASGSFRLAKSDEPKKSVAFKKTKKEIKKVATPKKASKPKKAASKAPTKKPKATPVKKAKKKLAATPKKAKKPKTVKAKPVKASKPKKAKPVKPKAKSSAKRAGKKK

B1: His-NS1 fusion protein (respiratory syncytial virus nonstructural protein 1) (natural protein)
chain: MGSNSLSMIKVRLQNLFDNDEVALLKITCYTDKLIHLTNALAKAVIHTIKLNGIVFVHVITSSDICPNNNIVVKSNFTTMPVLQNGGYIWEMMELTHCSQPNGLLDDNCEIKFSKKLSDSTMTNYMNQLSELLGFDLNP
notes: nonstructural protein 1 (NS1) of respiratory syncytial virus; Immobilised by amine coupling on the CM5 chip; source: E. coli BL21, purified
**Q.** For B1, which Kd is on record?
**A.** The Kd was 31.2 nM.

**Q.** What about the kon of the same binder?
**A.** The kon was 25400 M⁻¹ s⁻¹.
